This is an account of results in patent publication US20230391826A1, “COMPOSITIONS AND METHODS FOR TREATING DISEASES” (Sanford Burnham Prebys Medical Discovery Institute, priority 2020, published 2023).

Test [1] has as its target EphA2 extracellular domain fused to the Fc portion of an antibody (EphA2-Fc). In words: ELISA, inhibition of ephrinA5-AP binding to immobilized EphA2-Fc; representative experiment, triplicates. Background: An ELISA detects its analyte on a solid surface through an enzyme-linked reagent.
The target is the same in test [2]. In words: ELISA, inhibition of ephrinA5-AP binding to immobilized EphA2-Fc.
The target in test [3] is EphA2 endogenously expressed on PC3 prostate cancer cells (UniProt P29317). In words: cell-based or functional assay.
EphA2 endogenously expressed on PC3 prostate cancer cells, sequence (P29317 24-976 limits assumed): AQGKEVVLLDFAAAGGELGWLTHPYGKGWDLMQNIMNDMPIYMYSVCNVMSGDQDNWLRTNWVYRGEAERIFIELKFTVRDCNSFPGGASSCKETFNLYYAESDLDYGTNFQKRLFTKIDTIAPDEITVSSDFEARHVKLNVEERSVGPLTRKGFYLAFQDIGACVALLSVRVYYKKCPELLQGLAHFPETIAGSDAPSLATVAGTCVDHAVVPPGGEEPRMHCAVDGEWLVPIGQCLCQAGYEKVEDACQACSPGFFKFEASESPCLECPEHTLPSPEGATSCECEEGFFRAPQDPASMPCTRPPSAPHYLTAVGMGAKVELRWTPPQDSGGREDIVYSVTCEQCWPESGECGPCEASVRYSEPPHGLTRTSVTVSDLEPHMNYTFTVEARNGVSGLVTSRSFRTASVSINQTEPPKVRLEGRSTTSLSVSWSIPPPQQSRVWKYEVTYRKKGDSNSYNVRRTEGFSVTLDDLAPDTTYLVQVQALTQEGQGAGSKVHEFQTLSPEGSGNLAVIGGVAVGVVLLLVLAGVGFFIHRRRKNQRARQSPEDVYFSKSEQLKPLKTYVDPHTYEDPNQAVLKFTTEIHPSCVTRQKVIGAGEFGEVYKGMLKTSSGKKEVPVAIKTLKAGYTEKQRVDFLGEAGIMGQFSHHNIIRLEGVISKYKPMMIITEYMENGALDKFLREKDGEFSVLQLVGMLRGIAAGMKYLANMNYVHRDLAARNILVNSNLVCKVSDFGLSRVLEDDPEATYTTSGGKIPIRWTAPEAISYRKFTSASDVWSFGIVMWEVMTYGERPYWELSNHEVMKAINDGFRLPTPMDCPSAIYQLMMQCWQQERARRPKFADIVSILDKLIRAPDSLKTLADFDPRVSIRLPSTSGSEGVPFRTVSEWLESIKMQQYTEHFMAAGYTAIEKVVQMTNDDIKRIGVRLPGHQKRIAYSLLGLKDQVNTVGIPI

m-ephrinA1 (monomer) (ligand), sequence (P20827 19-182): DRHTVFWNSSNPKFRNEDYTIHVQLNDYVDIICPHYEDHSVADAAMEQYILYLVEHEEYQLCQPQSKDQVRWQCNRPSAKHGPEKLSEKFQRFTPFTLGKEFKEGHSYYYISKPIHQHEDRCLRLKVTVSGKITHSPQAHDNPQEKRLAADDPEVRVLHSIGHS

Regarding CGA-WLA-YRPKam dimer (N-ter) (peptide), the values for the IC50 in test [1] and in test [2] were 0.49 nM and 0.4 nM, respectively.
In test [3], ephrinA1-Fc (dimer) (Fc fusion) had a Blig (bias factor) of 0, an EC50 PY588 of 0.81 nM, an EC50 pAKT inhib of 1.7 nM and an EC50 pY588 of 3.8 nM. Also, in test [3], the Emax PY588 (normalized to ephrinA1-Fc) came out at 1, the Etop pAKT inhib worked out at 1, the IC50 PAKT is 0.62 nM and the βlig (bias factor) is 0.
Take m-ephrinA1 (monomer) (ligand): the IC50 (as a rule, the point on the concentration scale where inhibition reaches its midpoint) in test [1] amounted to 19 nM. Also, the IC50 in test [2] worked out at 21 nM. In test [3], this substance yielded a Blig (bias factor) of 0.3, an EC50 PY588 of 28 nM, an EC50 pAKT inhib of 27 nM and an EC50 pY588 of 74 nM. In test [3], this substance returned an Emax PY588 (normalized to ephrinA1-Fc) of 0.74, an Etop pAKT inhib of 1, an Etop pY588 (normalized to ephrinA1-Fc) of 0.36 and an IC50 PAKT of 13 nM. Further, the βlig (bias factor) in test [3] worked out at 0.54.
